As a reminder, the Kd is a measure of binding affinity in units of concentration.

For data set [1], the target named is GATA2-Zf;TRβ1 DBD-LBD (TR DL, TRβ1ΔAB) (;human, UniProt P23769;P10828 291-412;102-461, |). The experiment in a line: fluorescence anisotropy; T3; Hill n 1±0.2; Fluorescence anisotropy: 10 nM DNA, 20 mM Hepes pH 8.0, 50 mM NaCl, 1 mM MgCl2, 3 mM DTT, 5% glycerol, 10°C; agarose gel 1.3% in 0.5x TBE. As to conditions: protein: recombinant;recombinant; tags: His, thrombin treated;His (pET28a); copies: 1;1; label: 5' fluorescein (FITC) on forward strand; blunt. A general note: Fluorescence polarisation rises when a labelled molecule tumbles more slowly, as on binding a larger partner.

The target of data set [2] is T1, TRβ1 DBD-LBD (TR DL, TRβ1ΔAB);RXRα1 DBD-LBD (RXR DL, RXRα1ΔAB) (human;, UniProt P10828;P19793 102-461;126-462, |). As to the kind of experiment: fluorescence anisotropy; T3; Hill n 1.8±0.1; Fluorescence anisotropy: 10 nM DNA, 20 mM Hepes pH 8.0, 50 mM NaCl, 1 mM MgCl2, 3 mM DTT, 5% glycerol, 10°C; agarose gel 1.3% in 0.5x TBE. As to conditions: protein: recombinant;recombinant; tags: His (pET28a);His (pET28a); copies: 1;1; label: 5' fluorescein (FITC) on forward strand; blunt.

For data set [3], the target named is T1, TRβ1 DBD-LBD (TR DL, TRβ1ΔAB);RXRα1 …. As to the kind of experiment: fluorescence anisotropy; T3; Hill n 3.7±1; text refers to previous studies [36],[37] but listed in this paper's Table 1 and Fig. 2; Fluorescence anisotropy: 10 nM DNA, 20 mM Hepes pH 8.0, 50 mM NaCl, 1 mM MgCl2, 3 mM DTT, 5% glycerol, 10°C; agarose gel 1.3% in 0.5x TBE. The conditions noted are these: protein: recombinant;recombinant; tags: His (pET28a);His (pET28a); copies: 1;1; label: 5' fluorescein (FITC) on forward strand; blunt.

GATA2-Zf;TRβ1 DBD-LBD (TR DL, TRβ1ΔAB), sequence (P23769 291-412, stated change not applied, chain 1 of 2): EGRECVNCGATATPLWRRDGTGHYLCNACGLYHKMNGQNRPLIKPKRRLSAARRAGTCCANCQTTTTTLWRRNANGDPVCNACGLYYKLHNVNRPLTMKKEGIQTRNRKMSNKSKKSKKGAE
GATA2-Zf;TRβ1 DBD-LBD (TR DL, TRβ1ΔAB), sequence (P10828 102-461, stated change not applied, chain 2 of 2): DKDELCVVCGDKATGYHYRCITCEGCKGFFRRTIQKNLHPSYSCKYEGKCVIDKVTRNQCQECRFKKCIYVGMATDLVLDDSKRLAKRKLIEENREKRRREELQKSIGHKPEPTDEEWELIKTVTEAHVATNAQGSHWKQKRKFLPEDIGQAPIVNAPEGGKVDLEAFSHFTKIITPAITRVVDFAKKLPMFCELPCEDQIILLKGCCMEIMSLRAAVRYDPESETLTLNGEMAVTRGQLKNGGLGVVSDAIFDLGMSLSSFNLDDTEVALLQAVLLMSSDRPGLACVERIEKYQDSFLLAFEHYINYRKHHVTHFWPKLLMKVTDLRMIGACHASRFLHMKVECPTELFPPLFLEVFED
T1 sequence (P10828 102-461, stated change not applied, chain 1 of 2): as the sequence (P10828 102-461, stated change not applied, chain 2 of 2) above
T1 sequence (P19793 126-462, stated change not applied, chain 2 of 2): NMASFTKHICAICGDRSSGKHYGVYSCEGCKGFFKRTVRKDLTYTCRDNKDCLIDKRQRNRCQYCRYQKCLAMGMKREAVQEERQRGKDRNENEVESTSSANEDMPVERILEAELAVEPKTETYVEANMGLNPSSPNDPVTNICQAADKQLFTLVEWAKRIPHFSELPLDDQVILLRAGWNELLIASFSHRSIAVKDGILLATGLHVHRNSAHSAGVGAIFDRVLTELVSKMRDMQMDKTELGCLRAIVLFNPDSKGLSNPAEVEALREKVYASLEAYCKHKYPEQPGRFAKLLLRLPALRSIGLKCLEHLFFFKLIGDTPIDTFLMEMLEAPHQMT

B1: GATA-RE (canonical) (dsDNA)
DNA 1: CACTTGATAACAGAAAGTGATAACTCT
DNA 2: AGAGTTATCACTTTCTGTTATCAAGTG
As for B1, the Kd in data set [1] was 140 ± 29.8 nM.

B2: TSH NRE (dsDNA)
DNA 1: TGGGTCACCACAGCATCTGCTCACCAATGCAAAGT
DNA 2: ACTTTGCATTGGTGAGCAGATGCTGTGGTGACCCA
With B2, in data set [2], the Kd stood at 720 ± 19 nM.

B3: DR4 TRE (dsDNA)
DNA 1: AGTTCAGGTCACAGGAGGTCAGAG
DNA 2: CTCTGACCTCCTGTGACCTGAACT
Turning to B3, in data set [3], the Kd came to 39.4 ± 2.2 nM.

B4: TSH GATA-RE (dsDNA)
DNA 1: TCAATAGATGCTTTTCAGATAAGAA
DNA 2: TTCTTATCTGAAAAGCATCTATTGA
Take B4: in data set [1], the Kd was 38.6 ± 7.9 nM.

These data come from publication PMC2935386, “Dissecting the Relation between a Nuclear Receptor and GATA: Binding Affinity Studies of Thyroid Hormone Receptor and GATA2 on TSHβ Promoter”.
